Assay: Screening of pH and buffers: stability of liquid huPTH formulations by SEC-, RP- and CEX-HPLC
Format: physicochemical
Settings: accelerated stability at 25° C. and 37° C.; pH 4.0-9.0 buffers, 140 mM NaCl, 1 mg/mL huPTH
Method: Recombinant huPTH (1 mg/mL) having the amino acid sequence set forth in SEQ ID NO: 2 was used as an active ingredient in the formulations. Table 1 provides a summary of the formulations that were tested in this example.
The results of SEC-HPLC, RP-HPLC and CEX-HPLC performed at 25° C. and 37° C. are depicted in FIGS. 4-6. The results of SEC-HPLC and RP-HPLC performed at 4° C. are depicted in FIGS. 7-8.

Which “stability profile as a function of pH” value does the source give for CC[C@H](C)[C@H](NC(=O)[C@H](CCC(=O)O)NC(=O)[C@H](CO)NC(=O)[C@@H](NC(=O)[C@@H](N)CO)C(C)C)C(=O)N[C@@H](CCC(N)=O)C(=O)N[C@@H](CC(C)C)C(=O)N[C@@H](CCSC)C(=O)N[C@@H](Cc1cnc[nH]1)C(=O)N[C@@H](CC(N)=O)C(=O)N[C@@H](CC(C)C)C(=O)NCC(=O)N[C@@H](CCCCN)C(=O)N[C@@H](Cc1cnc[nH]1)C(=O)N[C@@H](CC(C)C)C(=O)N[C@@H](CC(N)=O)C(=O)N[C@@H](CO)C(=O)N[C@@H](CCSC)C(=O)N[C@@H](CCC(=O)O)C(=O)N[C@@H](CCCN=C(N)N)C(=O)N[C@H](C(=O)N[C@@H](CCC(=O)O)C(=O)N[C@@H](Cc1c[nH]c2ccccc12)C(=O)N[C@@H](CC(C)C)C(=O)N[C@@H](CCCN=C(N)N)C(=O)N[C@@H](CCCCN)C(=O)N[C@@H](CCCCN)C(=O)N[C@@H](CC(C)C)C(=O)N[C@@H](CCC(N)=O)C(=O)N[C@@H](CC(=O)O)C(=O)N[C@H](C(=O)N[C@@H](Cc1cnc[nH]1)C(=O)N[C@@H](CC(N)=O)C(=O)N[C@@H](Cc1ccccc1)C(=O)O)C(C)C)C(C)C [huPTH] here?
Its value is “best stability profile at pH 5”.
